Experimental data as given in the supplement of paper PMC9170038.

Tested on: MS2 coat protein
Assay: apparent KD of MS2 coat protein; higher = weaker reporter binding
Conditions: Eterna round: R107
Procedure, shortened: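 In 100 mM Tris-HCl pH 7.5 with 80 mM KCl and 4 mM MgCl2, and without or with constant ligand, SNAP-549-labelled MS2 coat protein was titrated in twofold steps from 0.7 or 1.5 nM to 3 µM. Per-step times went from 0.8–1.5 h down to 10–20 min. The RNA switches were transcribed on-chip from Illumina sequencing clusters, and apparent KD is the per-design median of normalised cluster binding-curve fits.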

[1] = input ligand: theophylline 20 uM
[2] = input ligand: theophylline 2 mM
[3] = input ligand: tryptophan 2.4 mM

Sequence | apparent KD of MS2 coat protein (input ligand: arginine 13.2 mM) [nM] | apparent KD of MS2 coat protein (input ligand: none) [nM] | apparent KD of MS2 coat protein [1] [nM] | apparent KD of MS2 coat protein [2] [nM] | apparent KD of MS2 coat protein [3] [nM]
CACAUGAGGAUCACCCAUGUCUGAACUGAAGGAGCGCUAAACAAGGCAGGUAGGUCGCGGAAUCUUGUGUGCAUAUGCACACGGG [9.S] | 18.4 | 18.2 | 27.4 | 22.7 | 19.9
GCAUCCUAGUCGGCCGCCACUGCAGUAGCACCUGCUACAUGGAAACAUGAGGAUCACCCAUGUAGCAGGACCGGGACUAGGAUGC [(Trp1)-(TM)''-(TM)'-(Ms2)-(Trp2)_Design8] | 44.3 | 276 | 733 | 909 | 236
AGGUGCAAAGCACCCUCUGGCCCUCGUGAAGGAGCGCUCGAAAGAGCAGGUAGGUCGCAUGAGGAUCACCCAUGUGAGCCAGAGA [Arg A Exc A v1] | 35.1 | 52.5 | 83.5 | 65.3 | 56.2
AUUAUCAUGGUCAUAUAUAUAUCUUCAGAUACCAGACUAUAUUAAGUCCCUUGGCAGCUGUUACAUGAGGAUCACCCAUGUUAUA [JR_ExcTheophyA_Sub014] | 53.9 |  | 76.1 |  | 102
CGAUCUUUCGAAAGAAGGAUCGAGUCUGAUACCAGAGACGAAAGUCUCCCUUGGCAGCAGUGCCAACAUGAGGAUCACCCAUGUU [Theophylline A 10] | 16.2 |  | 19.1 |  | 15.8
UUAAUCUAUGAAGAAAACUUUAUAGCAGAAGGAGCGUGAUAAAACACAGGUAGGUCGCUGAAGGGAACAUGAGGAUCACCCAUGU [AstrosSSArgA#19] | 23.7 | 22.7 | 36.7 | 31.1 | 26.5
AGGACCAGGAUCCUCAUGUAACUGGUCCAACGAGGACCGGUACGGCCGCCACUCGAAUAAACAUGAGGAUCACCCAUGUAAUAAU [T''-M-T'-T-MS2] | 36.9 | 268 | 169 | 313 | 426
AACAUGAGGAUCACCCAUGUUAAGUAUGAAGGAGCGUCGGAAACGACAGGUAGGUCGCAUACUUGGCCUUGUACUUCGUGUGUCU [#02 Exclusion - Arginine A] | 14.2 | 14.3 | 17.9 | 14.4 | 14.7
UGUAUGGACUGAAGGAGCGCCUCAAACAUGAGGAUCACCCAUGUGGACAAAUAAGUCCUUGGGCAGGUAGGUCGCAGUCCAUACU [ArgBX 7 #StaticStem #MS2Late] | 73.5 | 82.8 | 91.2 | 90.6 | 66.1
GCACCAGGUACGGAUACCAGCUGCUCGAGAUACAUGAGGAUCACCCAUGUGACCUGGUUUAGCCCUUGGCAGCUGUACCUGGUGC [#15 Same State - Theophylline B] | 16.4 |  | 15.3 |  | 17.2
UCGUUGAAGUCGGCCGCCACUGAACUCAUGUUCAACAUGAGGAUCACCCAUGUACCUUAUUUUAACAGGACCGGGACUUUGACGA [JR_ExcTryptoB_Sub002] | 113 |  | 229 | 164 | 
GUCCUCAGCCGAAGGAGCGCUAGAAGAUGACAUGAGGAUCACCCAUGUGUGUGAUGUGGCUAGCAGGUAGGUCGCGGAGAGGAUU [Exclusion - Arginine B (Freestyle 16)] | 19.8 | 22.9 | 37.1 | 28 | 20.6
ACCUCAUAGGCGGCCGCCACUGUAAUGACUACGUCAAACAUGAGGAUCACCCAUGUAGUCAAUCACAGGACCGGGUCAUGGGUAG [Tryp B SS s2] | 27.7 |  | 45.6 | 41.4 | 
UACCGGUGACUCGAUACCAGUCCUCUAAAAUACAUGAGGAUCACCCAUGUAACCUUCCCAGACCCUUGGCAGCGACACAUGGAUA [theeternabot_sameState_MS2_Theo_B_49] | 97.7 |  | 176 |  | 147
AUAAGGUAUCUGCUUCAUGGGUGAGCAGAUACCAGCUAGGAAACUAGCCCUUGGCAGCUGCAACAUGAGGAUCACCCAUGUAAUA [(T)'-(M)'-(T1)-(T2)-(M1)-(M2)_Design2] | 60.7 | 1060 | 149 | 964 | 142
AACGUCUUGUCGGCCGCCACUGUAUGGUGCGUGACAUGAAACAUGAGGAUCACCCAUGUAGCAUGCAGGACCGGGACAGUGCCAA [Beriaran] | 7.49 |  | 13.9 | 11.6 | 
AAUAAUAACAUGGGUGAAGUCGUACCAUAACGAGGACCGGUACGGCCGCCACUCGAACAUGAGGAUCACCCAUGUAGGUACGACA [M'-T'-T-MS2-T'' - Design 9] | 37.6 | 86.6 | 110 | 85.2 | 43.7
AGAUUCGACACGGCCGCCACUCGUGGUGGAUUACCUAGUGUCGAACAUGAGGAUCACCCAUGUACGAGGACCGGGUGUUGAGUCU [XTryp B #18] | 40.5 |  | 85.6 | 86 | 
AAACAUGAGGAUCACCCAUGUCCUCGUGAUCGAGGACCGGUACGGCCGCCACUCGGUCCUCGCGAGGUGGAGUCAAAGACUCCAA [Omei Trp A SS A v7] | 73.9 | 182 | 215 | 115 | 69.5
CAUCCACCUGAAGCCUCCCAAUUCCUCGAUACCAGAGGAUUAAGACUCCCUUGGCAGCGAGCUACAUGAGGAUCACCCAUGUGCC [theeternabot_exclusion_MS2_Theo_A_32] | 17.8 |  | 24.1 |  | 18.2
UCGGGCAGAGCGGCCGCCACUGUUUGGCAUGCGGAUGAAGGAACAUGAGGAUCACCCAUGUAGAUUAGGACCGGGCUUGCGGAGA [rvcmullin] | 19.1 | 18.2 | 22.1 | 23.8 | 19.5
CAUUGAGCAGCUGAUACCAGUGCCUGAACUUACAUGAGGAUCACCCAUGUAUGCCCAAAACACCCUUGGCAGCAGAGGAAGAUCG [theeternabot_sameState_MS2_Theo_B_38] | 15.2 |  | 18.9 |  | 14.5
UCGUGCAGAGCGGCCGCCACUGUAUUGCGUGCGGAUGACGGAACAUGAGGAUCACCCAUGUUGUUUAGGACCGGGCUUGCCACCA ['xmullin] | 12.4 |  | 15.9 | 14.3 | 
CCCAAUUAGAUCUUUGGAAUUUUACUCGAAGGAGCGUCAUAGUAGGCAGGUAGGUCGCGAGACAUGAGGAUCACCCAUGUAGAGA [btbmullin] | 33 | 40.9 | 50.8 | 38.5 | 33
UCGCUCUGGGUGGAAUCCGGAGAUGUGGAAGGAGCGCUCGAAAGGGCAGGUAGGUCGCCAACGGACAUGAGGAUCACCCAUGUAC [#23 Same State - Arginine A] | 29.4 | 25.4 | 37.5 | 39.8 | 49.2
AAAAUAGAAGGAAGACAAAUAGAUACAGAAGGAGCGUAGGAAACUACAGGUAGGUCGCUGGAAAACAUGAGGAUCACCCAUGUAG [SSArg A #22 Slice of Pi Skeleton] | 31.5 | 40.6 | 54 | 46.9 | 42.6
CGUCGAAACUGAAGGAGCGAGAUGACAACAUUGGGUCUAACAUGAGGAUCACCCAUGUAAUCUCAGGUAGGUCGCGGUGUCAACA [Exclusion Arginine B GF18] | 53.7 | 64.6 | 86.3 | 120 | 63.9
GGACUAACCAGAAGGAGCGACACGCAGAAACUGCAAAAUCCUCCGCACGAGGAUCACCCGUGUCAGGUAGGUCGCUGGUUAGUCG | 38.6 | 54.3 | 63.6 | 60.2 | 49.7
GGGUACAUCGCGGCCGCCACUGAUGUAAAUACAUGAGGAUCACCCAUGUCGAUGGAGACAUCGGCCAGGACCGGGUGAUGUACCG | 13.1 | 14 | 24.1 | 16.5 | 11.6
UCUGGUAUGACGGCCGCCACUAGAUCGUGAGAAGCCUGCAUACAUGAGGAUCACCCAUGUCUCACUAGGACCGGGUCAUUCCAAU [theeternabot_sameState_MS2_Trp_B_5] | 53.8 |  | 105 | 119 | 
